Experimental data taken from patent US20240247301A1, “DIAGNOSTIC ASSAY FOR CLASSIC INBORN GALACTOSEMIA” (Ohio State Innovation Foundation, priority 2022, published 2024).

Assays:
[1] = earlier qualitative observation (Kuznetsova et al. 2006); cited from earlier work
[2] = Duarte GalT-YidA coupled assay (malachite green); assay type: biochemical; settings: recombinant Duarte GalT, substrate Gal-1-P
Procedure: The assay contained 25 mM 4-(2-hydroxyethyl)-1-piperazineethanesulfonic acid (HEPES) (pH 8.0), 3 mM MgCl2, 2 mM DTT, 1 mM UDP-glucose (Sigma-Aldrich), 3 mM YidA, and varying amounts of His6-tagged Duarte GalT: 0.25 mM GalT for ≤0.1-mM Gal-1P, and 0.1 mM GalT for ≥0.1-mM Gal-1P (Table 3). […] These 2-μL aliquots were added to a 384-well plate which were pre-dispensed to test wells 18 μL of water and 5 μL of malachite green reagent. […] These specific time courses (using four time points; Table 3) and the appropriate dilutions were performed to maintain product formation in the linear range. To determine the Km and kcat values, the initial velocity calculated at each substrate concentration was subject to the Michaelis-Menten curve-fitting option in Kaleidagraph (Synergy Software).

[3] = Duarte GalT variant; cited from earlier work
[4] = YihX kinetic studies (malachite green phosphate assay); assay type: biochemical, Salmonella; settings: Glc 1-P versus 6-P-F-Asp
Text: Top panel reproduced from Monroy, et al., 2013.
The Km and kcat values are listed here with their respective curve-fit errors (see summary in Table 4).
Salmonella YihX was purified after overexpression in E. coli BL21 (DE3) pLysS cells. His6-YihX was purified under denaturing conditions using immobilized metal-affinity chromatography. Following purification, YihX was refolded by stepdown dialysis to remove the denaturant. […] YihX offers the basis for a simpler and more sensitive assay to diagnose classic galactosemia.

[5] = YidA substrate-specificity test, initial velocity for Glc-1-P versus Gal-1-P; assay type: biochemical, Salmonella; settings: 3 mM Glc-1-P or 3 mM Gal-1-P, 3 mM MgCl2
Text: FIGS. 1A-B show substrate-recognition bias of YidA for Glc-1-P over Gal-1P. […] The data represent mean±standard error determined from two independent trials. […] The Km and kcat values listed represent the mean±standard error from two independent trials.
Nearly homogeneous recombinant Salmonella YidA by overexpressing it in E. coli SixPack cells were obtained (Lipinszki et al. 2018) (FIG. 3A). N-terminal fusions with a small ubiquitin-like modifier (SUMO) domain were engineered to enhance solubility (Marblestone et al. 2006) and a His6 tag to facilitate affinity purification (FIG. 3A). To measure the phosphatase activity of YidA, malachite green, a cationic dye that forms with free orthophosphate and molybdate a green-colored complex (Abs620) was used; this assay can measure nanomolar concentrations of orthophosphate (FIG. 4). Since YidA is a Mg^2+-dependent phosphatase, its activity with Glc-1-P in the presence of 0-5 mM MgCl2 was first tested and determined that 3 mM MgCl2 was optimal (FIG. 5).

B1: E. coli YidA: E. coli YidA phosphatase documented in a previous study (Kuznetsova et al. 2006) (protein, UniProt P0A8Y5 1-270, looked up)
Sugar phosphatase YidA: MAIKLIAIDMDGTLLLPDHTISPAVKNAIAAARARGVNVVLTTGRPYAGVHNYLKELHMEQPGDYCITYNGALVQKAADGSTVAQTALSYDDYRFLEKLSREVGSHFHALDRTTLYTANRDISYYTVHESFVATIPLVFCEAEKMDPNTQFLKVMMIDEPAILDQAIARIPQEVKEKYTVLKSAPYFLEILDKRVNKGTGVKSLADVLGIKPEEIMAIGDQENDIAMIEYAGVGVAMDNAIPSVKEVANFVTKSNLEDGVAFAIEKYVLN
dephosphorylation of Gal-1-P compared to Glc-1-P (qualitative) [1]: negligible dephosphorylation of Gal-1-P compared to Glc-1-P

B2: Duarte GalT: recombinant His6-tagged Duarte variant of galactose-1-phosphate uridylyl transferase, clone from Addgene (GALTA-c001) (protein, UniProt P07902 1-379, looked up, variant N314D)
Galactose-1-phosphate …: MSRSGTDPQQRQQASEADAAAATFRANDHQHIRYNPLQDEWVLVSAHRMKRPWQGQVEPQLLKTVPRHDPLNPLCPGAIRANGEVNPQYDSTFLFDNDFPALQPDAPSPGPSDHPLFQAKSARGVCKVMCFHPWSDVTLPLMSVPEIRAVVDAWASVTEELGAQYPWVQIFENKGAMMGCSNPHPHCQVWASSFLPDIAQREERSQQAYKSQHGEPLLMEYSRQELLRKERLVLTSEHWLVLVPFWATWPYQTLLLPRRHVRRLPELTPAERDDLASIMKKLLTKYDNLFETSFPYSMGWHGAPTGSEAGANWDHWQLHAHYYPPLLRSATVRKFMVGYEMLAQAQRDLTPEQAAERLRALPEVHYHLGQKDRETATIA
increase in kcat/Km, YidA-based assay versus PGM-G6PDH coupled assay [2]: ~2.5 fold
activity relative to wild-type GalT [3]: ~25%

B3: YihX: recombinant Salmonella HAD-like sugar-phosphate phosphatase, overexpressed in E. coli BL21 (DE3) pLysS cells and refolded (protein, listed as Salmonella typhimurium)
chain: MLYIFDLGNVIVDIDFNRVLGVWSDLSRVPLASLKQKFTMGETFHQHERGEITDEAFAEAFCHEMALSLSYEQFAHGWQAVFVGLRPEVIAIMHKLREQGHRVVVLSNTNRLHTHFWPEEYPEVRAAADHIYLSQDLGMRKPEARIYQHVLQKEGFSAADAVFFDDNADNIEGANQLGITSILVKDKATIPDYFAKLLC
modifications: Description of sequence: YihX
substrate hydrolysis (qualitative) [4]: hydrolyzes glucose 1-phosphate (Glc 1-P) but not 6-P-F-Asp

B4: YidA: recombinant Salmonella sugar-phosphate phosphatase of the HAD superfamily, overexpressed in E. coli SixPack cells; SUMO tag removed unless stated (protein, listed as Salmonella typhimurium)
chain: MAIKLIAIDMDGTLLLPDHTISPAVKNAIAAAREKGVNVVLTTGRPYAGVHSYLKELHMEQPGDYCITYNGALVQKAGDGSTVAQTALSYDDYRYLEKLSREVGSHFHALDRNTLYTANRDISYYTVHESYVATIPLVFCEAEKMDPNTQFLKVMMIDEPAVLDRAIARIPAEVKEKYTVLKSAPYFLEILDKRVNKGTGVKSLVEALGIKPEEVMAIGDQENDIAMIEYAGMGVAMDNAIPSVKEVANFVTKSNLEDGVAWAIEKFVLNPDHSSGHFPAR
modifications: Description of sequence: YidA
notes: recombinant Salmonella sugar-phosphate phosphatase of the HAD superfamily, overexpressed in E. coli SixPack cells; SUMO tag removed unless stated
preference for Glc-1-P over Gal-1-P (initial velocity) [5]: ≥ 40 fold
